Square brackets hold non-standard residues; d marks the D form. Ends that are not written are not given here. pT = C[C@@H](OP(=O)(O)O)[C@H](N)C(=O)O
How the values were obtained:
[1] = target: Myc-STAG2 p.Ser327Asn (human) (UniProt Q8N3U4); assay: co-IP; anti-Myc beads, lysates of HeLa Tet-On cells transfected with Myc-STAG2 WT or mutants; 3 h at 4 °C; washes with lysis buffer containing 200 mM NaCl; blots for endogenous proteins
[2] = target: T1, STAG2(80–930) p.Ser327Asn–SCC1(281–394) complex (human, UniProt Q8N3U4-2 80-930; O60216 281-394, p.Ser327Asn); assay: ITC; MicroCal iTC200, 20 °C; 20 uM STAG2(80–930)–SCC1(281–394) complex in the cell, titrated with 300 uM pSGO1 peptide; 20 mM Tris-HCl pH 7.7, 200 mM NaCl, 5 mM TCEP; conditions: both partners purified
T1 construct: STAG2 (SA2), human, residues 80-930, patient germline variant p.Ser327Asn; SCC1 (RAD21), human, residues 281-394, in pGEX-6p1; The methods describe only the WT STAG2(80–930) vector; also called purified STAG2–SCC1 p.Ser327Asn; SA2–SCC1 p.Ser327Asn; source: E. coli, co-expressed, purified (Glutathione Sepharose 4B, PreScission cleavage, ion exchange, size exclusion)
T1 sequence (looked up) 1: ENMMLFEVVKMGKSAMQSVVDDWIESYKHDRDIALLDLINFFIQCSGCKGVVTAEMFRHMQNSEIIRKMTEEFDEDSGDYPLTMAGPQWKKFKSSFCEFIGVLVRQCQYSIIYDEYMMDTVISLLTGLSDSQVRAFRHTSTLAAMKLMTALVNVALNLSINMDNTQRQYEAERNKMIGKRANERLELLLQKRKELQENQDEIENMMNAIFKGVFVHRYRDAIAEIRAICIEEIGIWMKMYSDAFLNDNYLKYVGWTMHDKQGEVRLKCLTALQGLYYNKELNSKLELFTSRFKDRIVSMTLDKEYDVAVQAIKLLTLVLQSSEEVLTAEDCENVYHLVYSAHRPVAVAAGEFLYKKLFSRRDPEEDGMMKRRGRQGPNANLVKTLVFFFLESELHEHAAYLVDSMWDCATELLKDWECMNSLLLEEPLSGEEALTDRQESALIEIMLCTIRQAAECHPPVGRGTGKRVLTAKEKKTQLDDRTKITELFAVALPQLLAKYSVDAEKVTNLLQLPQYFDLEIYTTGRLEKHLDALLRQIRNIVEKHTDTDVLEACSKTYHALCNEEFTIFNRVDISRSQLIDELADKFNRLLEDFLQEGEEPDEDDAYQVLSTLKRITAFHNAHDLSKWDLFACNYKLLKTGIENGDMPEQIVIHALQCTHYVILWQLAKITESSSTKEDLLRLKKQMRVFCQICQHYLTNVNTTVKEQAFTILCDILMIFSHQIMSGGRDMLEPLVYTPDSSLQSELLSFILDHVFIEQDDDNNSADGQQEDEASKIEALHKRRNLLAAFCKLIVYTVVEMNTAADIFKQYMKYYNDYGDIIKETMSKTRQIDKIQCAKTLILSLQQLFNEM
T1 sequence (looked up) 2: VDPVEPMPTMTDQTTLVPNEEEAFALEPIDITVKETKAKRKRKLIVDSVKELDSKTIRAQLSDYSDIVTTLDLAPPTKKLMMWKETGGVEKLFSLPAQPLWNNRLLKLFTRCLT

[3] = target: T2, STAG2(80–930)–SCC1(281–394) complex, WT (human, UniProt Q8N3U4-2 80-930; O60216 281-394); assay: as above; conditions: both partners purified
T2 construct: STAG2 (SA2), human, residues 80-930, in pET28a; SCC1 (RAD21), human, residues 281-394, in pGEX-6p1; also called purified STAG2–SCC1 WT; SA2–SCC1 complex; source: E. coli, co-expressed, purified (Glutathione Sepharose 4B, PreScission cleavage, ion exchange, size exclusion)
T2 sequence (looked up) 1: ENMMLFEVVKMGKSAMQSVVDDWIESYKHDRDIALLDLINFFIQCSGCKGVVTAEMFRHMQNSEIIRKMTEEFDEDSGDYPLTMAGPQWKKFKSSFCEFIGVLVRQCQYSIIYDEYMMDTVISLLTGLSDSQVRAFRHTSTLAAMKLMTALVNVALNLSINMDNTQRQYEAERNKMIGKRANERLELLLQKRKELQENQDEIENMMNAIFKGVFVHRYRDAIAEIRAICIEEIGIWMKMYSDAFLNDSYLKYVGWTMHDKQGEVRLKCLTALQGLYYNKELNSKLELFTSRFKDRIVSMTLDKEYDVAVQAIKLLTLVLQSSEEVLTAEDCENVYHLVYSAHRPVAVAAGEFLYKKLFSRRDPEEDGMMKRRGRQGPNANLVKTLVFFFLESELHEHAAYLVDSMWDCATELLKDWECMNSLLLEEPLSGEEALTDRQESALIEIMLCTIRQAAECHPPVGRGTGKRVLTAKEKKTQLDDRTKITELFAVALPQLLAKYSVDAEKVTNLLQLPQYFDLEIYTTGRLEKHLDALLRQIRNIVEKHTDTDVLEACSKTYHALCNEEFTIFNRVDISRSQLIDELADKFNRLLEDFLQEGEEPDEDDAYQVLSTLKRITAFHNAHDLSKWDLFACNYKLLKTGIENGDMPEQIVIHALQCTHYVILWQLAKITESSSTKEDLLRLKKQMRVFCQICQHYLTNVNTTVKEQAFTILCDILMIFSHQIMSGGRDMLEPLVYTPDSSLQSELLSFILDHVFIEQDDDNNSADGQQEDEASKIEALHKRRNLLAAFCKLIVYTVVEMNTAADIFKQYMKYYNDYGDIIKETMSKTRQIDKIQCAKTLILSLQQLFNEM
T2 sequence (looked up) 2: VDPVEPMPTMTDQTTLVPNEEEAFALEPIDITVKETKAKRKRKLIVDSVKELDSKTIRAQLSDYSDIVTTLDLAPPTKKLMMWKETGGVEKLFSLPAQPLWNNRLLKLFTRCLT

Sequence of Myc-STAG2 p.Ser327Asn (human) (Q8N3U4 other isoform, or with tags, fused parts or gaps p.S327N): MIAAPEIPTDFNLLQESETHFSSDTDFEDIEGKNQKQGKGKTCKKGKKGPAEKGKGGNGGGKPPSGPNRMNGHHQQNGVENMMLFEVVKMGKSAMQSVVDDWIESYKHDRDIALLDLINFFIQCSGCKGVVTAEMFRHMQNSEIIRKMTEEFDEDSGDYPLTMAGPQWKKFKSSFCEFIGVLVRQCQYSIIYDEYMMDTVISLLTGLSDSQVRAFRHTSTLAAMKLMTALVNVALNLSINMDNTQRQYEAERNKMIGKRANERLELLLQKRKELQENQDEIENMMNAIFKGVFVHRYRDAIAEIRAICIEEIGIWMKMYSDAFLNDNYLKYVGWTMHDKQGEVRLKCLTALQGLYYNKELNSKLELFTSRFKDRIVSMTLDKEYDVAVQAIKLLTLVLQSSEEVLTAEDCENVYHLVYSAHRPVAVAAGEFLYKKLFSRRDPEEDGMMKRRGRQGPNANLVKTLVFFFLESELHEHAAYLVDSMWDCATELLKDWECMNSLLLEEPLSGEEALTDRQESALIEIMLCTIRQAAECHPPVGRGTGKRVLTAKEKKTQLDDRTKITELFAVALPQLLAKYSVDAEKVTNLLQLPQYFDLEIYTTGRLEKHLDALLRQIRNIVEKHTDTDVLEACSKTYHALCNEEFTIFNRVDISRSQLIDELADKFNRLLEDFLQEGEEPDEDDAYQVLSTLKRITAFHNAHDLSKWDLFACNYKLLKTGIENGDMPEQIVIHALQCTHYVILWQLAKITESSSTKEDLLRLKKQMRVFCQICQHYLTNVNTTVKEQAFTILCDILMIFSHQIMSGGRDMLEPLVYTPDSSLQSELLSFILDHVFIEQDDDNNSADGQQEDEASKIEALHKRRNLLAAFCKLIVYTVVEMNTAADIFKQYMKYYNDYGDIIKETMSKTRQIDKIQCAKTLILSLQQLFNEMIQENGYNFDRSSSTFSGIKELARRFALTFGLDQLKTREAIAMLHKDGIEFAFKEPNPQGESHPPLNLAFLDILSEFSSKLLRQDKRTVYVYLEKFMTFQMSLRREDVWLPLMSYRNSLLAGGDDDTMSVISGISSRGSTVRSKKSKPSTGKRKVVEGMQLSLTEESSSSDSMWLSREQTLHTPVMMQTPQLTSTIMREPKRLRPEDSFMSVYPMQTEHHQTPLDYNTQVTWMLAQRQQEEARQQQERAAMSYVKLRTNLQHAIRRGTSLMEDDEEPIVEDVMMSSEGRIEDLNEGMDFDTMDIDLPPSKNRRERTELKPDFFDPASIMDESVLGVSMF

Molecule: endogenous SMC1 (from UniProt Q14683 1-1233) (natural protein)
- reduction of binding against WT [1]: 50%

B1: synthetic phospho-Thr346 SGO1 peptide containing residues 313–353 of human SGO1 (peptide, UniProt Q5FBB7 313-353, looked up)
peptide: KSENKKTVPQKKMHKSVSSNDAYNFNLEEGVHL[pT]PFRQKVS
notes: SGO1, human, residues 313-353; also called pSGO1; phospho-SGO1 peptide; source: synthetic peptide
- Kd [2]: 290 nM
- Kd [3]: 230 nM

Reference: paper PMC5677968, “Familial STAG2 germline mutation defines a new human cohesinopathy” (NPJ Genomic Medicine, 2017)
